Laboratory results reported in publication doi:10.1101/2022.06.02.494578.

Columns and labels:
[1] = biological target: taxol-stabilised microtubules polymerised from pig brain tubulin (pig) (UniProt P02550); assay: TIRF imaging of labeled Lis1 on microtubules
[2] = biological target: taxol-stabilised microtubules polymerised from pig brain tubulin (pig) (UniProt P02550); assay: co-sedimentation

taxol-stabilised microtubules polymerised from pig brain tubulin (pig), sequence (P02550 whole entry): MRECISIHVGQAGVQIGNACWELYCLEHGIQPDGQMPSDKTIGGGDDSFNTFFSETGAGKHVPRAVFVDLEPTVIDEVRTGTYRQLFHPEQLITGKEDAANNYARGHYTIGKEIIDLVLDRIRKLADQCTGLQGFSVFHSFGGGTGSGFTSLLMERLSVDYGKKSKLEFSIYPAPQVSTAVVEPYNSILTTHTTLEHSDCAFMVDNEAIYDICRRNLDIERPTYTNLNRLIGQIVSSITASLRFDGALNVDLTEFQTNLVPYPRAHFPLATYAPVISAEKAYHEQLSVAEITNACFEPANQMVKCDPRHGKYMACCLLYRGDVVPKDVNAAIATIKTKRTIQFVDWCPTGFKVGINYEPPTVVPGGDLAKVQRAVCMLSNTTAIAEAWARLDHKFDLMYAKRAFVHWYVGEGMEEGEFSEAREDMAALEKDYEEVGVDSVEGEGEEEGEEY
Lis1 (Pac1, the Lis1 homolog in S. cerevisiae), wild-type dimer, sequence (P39946 whole entry): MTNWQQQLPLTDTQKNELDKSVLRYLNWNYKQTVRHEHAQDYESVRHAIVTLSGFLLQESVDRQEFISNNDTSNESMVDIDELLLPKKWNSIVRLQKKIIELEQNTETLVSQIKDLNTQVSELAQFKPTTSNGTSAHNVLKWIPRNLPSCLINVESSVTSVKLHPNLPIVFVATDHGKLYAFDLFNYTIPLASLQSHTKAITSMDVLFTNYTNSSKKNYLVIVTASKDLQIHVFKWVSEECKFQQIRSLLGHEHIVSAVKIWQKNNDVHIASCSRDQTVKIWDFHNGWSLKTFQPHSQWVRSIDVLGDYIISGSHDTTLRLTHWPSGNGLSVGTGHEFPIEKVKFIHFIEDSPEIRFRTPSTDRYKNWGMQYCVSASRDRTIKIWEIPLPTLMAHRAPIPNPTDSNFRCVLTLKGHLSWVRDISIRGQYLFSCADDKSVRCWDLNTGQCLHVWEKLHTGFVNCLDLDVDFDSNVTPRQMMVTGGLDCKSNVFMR
monomeric Lis1 lacking its amino-terminal dimerization domain (domain or fragment), sequence (A6ZPA6 whole entry, the tested form may be a part): as the sequence (P39946 whole entry) above

Row | percent of Lis1 intensity on microtubules lost after washing [1] | residence time on the microtubule [1] | Kd [2] | time to dissociation from the microtubule [1] | Substance
1 | 92% | 19.3 s | 88 nM | – | Lis1 (Pac1, the Lis1 homolog in S. cerevisiae), wild-type dimer (from UniProt P39946 1-494) (natural protein)
2 | – | – | – | 1 to 2 s | monomeric Lis1 lacking its amino-terminal dimerization domain (domain or fragment)
